Results as given in patent US20110256142A1 (Genmab, published 2011).
Residue numbers refer to the chain shown, from its start.

B1: Fully human IgG1,κ antibody 003 (P- or LC1006-003) (antibody, V domains shown)
VH: EVQLVESGGGLVQPGGSLRLSCAASGFTFSSYWMTWVRQAPGKGLEWVANIQQDGSEKNYLDSVKGRFTISRDNAKNSLSLQMNSLRAEDTAVYYCARTYSGFEDFWGQGTLVTVSS
VL: EIVLTQSPATLSLSPGERATLSCRASQSVSSYLAWYQQKPGQAPRLLIFDASNRATGIPARFSGSGSGTDFTLTISSLEPEDFAVYYCQQRSNWPPWTFGQGTKVEIK
notes: Human IgG1,κ; P1006-003 is the hybridoma before cloning, LC1006-003 the clone by limiting dilution; also called P1006-003
B2: Fully human IgG1,κ antibody 008 (P- or LC1006-008) (antibody, V domains shown)
VH: B1 VH with T35S, Q52K, K58E, L61V, I70V, S80Y, F106Y
VL: B1 VL
notes: Human IgG1,κ; P1006-008 uncloned, LC1006-008 cloned hybridoma; also called P1006-008
B3: Fully human IgG1,κ antibody 018 (P- or LC1006-018) (antibody, V domains shown)
VH: EVQLVESGGGLVQPGGSLRLSCAASGFTFSSYWMNWVRQAPGKGLEWVANIKKDGSEKYYVDSVKGRFTISRDNAKNSLYLQMNSLRAEDTAVYYCARDLGWGWGWYFDLWGRGTLVTVSS
VL: not shown
notes: Human IgG1,κ; P1006-018 uncloned, LC1006-018 cloned hybridoma; also called P1006-018

Key:
[1] = target: T1, EGFR-vIII deletion mutant expressed on transfected Ba/F3 and A431 cells (UniProt P00533 25-1210); test: flow cytometry on Ba/F3 cells transfected with EGFR-vIII, FITC anti-human IgG F(ab')2 detection
T1 construct: whole, on cells; Deletion variant, not expressible as substitutions; also called de2-7 EGFR

[2] = target: T2, purified EGFR (Sigma-Aldrich, cat no. E3641) (UniProt P00533 25-1210, limits assumed); test: ELISA, plate coated with purified EGFR, anti-human IgG Fc-HRP detection
T2 construct: Bought preparation coated on ELISA plates

Row | Binder | binding result [1] | EC50 [2] [µg/mL]
1 | B1 | no binding (tested: saturating concentrations) | 0.117
2 | B2 | no binding (tested: saturating concentrations) | 2.46
3 | B3 | – | 0.081
